± gives the standard deviation of the averaged measurements.
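Further: PSI is a weighted mean of sequencing reads over stability bins, variants kept only with over 10 reads, mCherry proximal and sfGFP distal, peptide attached via GGGS linker.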

This series deals with Saccharomyces cerevisiae. In words: protein stability index of tFT-peptide fusion (C-terminal peptide) (PSI (0-1 scale)); higher = more stable (slower turnover). The note with it: genetic background: wild type; temperature: 30 C.
In the case of KRKKNTRENGED, the protein stability index is 0.778 ± 0.022.
The sequence KRKRSERRRGKP returned a protein stability index of 0.693 ± 0.015.
To KRMPDERAKAGP belongs 0.694 ± 0.0079; to KRNCVVLLPMDR, 0.682 ± 0.23; to KRNEQQKNDRKK, 0.653 ± 0.046.
The same measure for KRRIGKYEERME: 0.661 ± 0.022; for KRRKREEKKSMT: 0.742 ± 0.097; for KRRTGKEGRIRR: 0.723 ± 0.021.
To KSDSRISGTVVV belongs 0.652 ± 0.059.
Take KSDTAWSHPYPS: the protein stability index amounted to 0.6793 ± 0.00097.
KSEKQKSNRKEF showed a protein stability index of 0.686 ± 0.071.
To KSGEHSCCRSAD belongs 0.602 ± 0.038; to KSKKQYTKKTRK, 0.709 ± 0.0078.
As for KSKLSSRTKLTH, the protein stability index was determined as 0.64 ± 0.03.
In turn, KSKTENKEKATK registered a protein stability index of 0.716 ± 0.1.
KSLNTAGVLTGR came in with a protein stability index of 0.68 ± 0.034.
For KSPIPMRAPGNS, the protein stability index came to 0.633 ± 0.053.
Sequence KSQKKKKKNKNF came in with a protein stability index of 0.57 ± 0.044.
KSSAGAGQCPLS displayed a protein stability index of 0.712 ± 0.019.
Sequence KSYKRICTKKSR displayed a protein stability index of 0.782 ± 0.096.
As to KTDSEPNKRIHK, the protein stability index was found to be 0.707 ± 0.09.
Turning to KTEGQEKRVMSE, the protein stability index stood at 0.734 ± 0.046.
For the sequence KTKDGKNNRRTN, the protein stability index came to 0.687 ± 0.009.
To KTKEETNENRNL belongs 0.719 ± 0.027; to KTNWKKKERKKA, 0.675 ± 0.027.
In turn, KTQNVNDQGEET came in with a protein stability index of 0.644 ± 0.062.
KTTERRQTKSRV had a protein stability index of 0.688 ± 0.085.
The sequence KTVPRMESRVRA displayed a protein stability index of 0.718 ± 0.053.
To KVKREEKRKRED belongs 0.712 ± 0.033; to KVLGRPVGMAYI, 0.666 ± 0.034.
KVWGPAVPAVPP had a protein stability index of 0.666 ± 0.065.
KWNVFRKGRGNI displayed a protein stability index of 0.793 ± 0.047.
Take KYTSQRSPRIFR: the protein stability index is 0.573 ± 0.2.
Sequence KYVYFAPVLDVI showed a protein stability index of 0.659 ± 0.033.
LAAGGSAGTRVV gave a protein stability index of 0.656 ± 0.026.
On to LAAVCFYPFCCF, for which the protein stability index came out at 0.641 ± 0.017.
The sequence LACWAGGLGWGG showed a protein stability index of 0.772 ± 0.044.
LAFPFSPLAPQI showed a protein stability index of 0.691 ± 0.077.
To LAGNNVSFMRVR belongs 0.714 ± 0.059.
To LAGPYGRVTVFF belongs 0.67 ± 0.029; to LAHACQRRQTEA, 0.786 ± 0.11.
Consider LALTIVKFGDLS, for which the protein stability index amounted to 0.789 ± 0.057.
Turning to LAPASPTHPHPP, the protein stability index is 0.679 ± 0.0087.
LAPLYFSPFPFP registered a protein stability index of 0.689 ± 0.041.
As for LAPPHLPPPLHK, the protein stability index was found to be 0.678 ± 0.053.
With LAPPPPVPPTHS, the protein stability index is 0.721 ± 0.052.
The sequence LARGPDETPAGA showed a protein stability index of 0.668 ± 0.18.
To LASPPIIVFSQM belongs 0.556 ± 0.016; to LATGLVIETLWE, 0.753 ± 0.042.
LAVGAAGVLFGG: the protein stability index came out at 0.776 ± 0.03.
Regarding LAVLRFHLRRHL, the protein stability index is 0.668 ± 0.065.
Take LAVSSAPLLSSF: the protein stability index stood at 0.723 ± 0.071.
With LCACRMVGFRGG, the protein stability index is 0.538 ± 0.045.
With LCCTLPSRGVIV, the protein stability index came out at 0.5993 ± 0.0059.
LCGGLSLPFAHV came in with a protein stability index of 0.691 ± 0.097.
Regarding LCLFPSSFRLPP, the protein stability index is 0.6489 ± 0.0051.
The sequence LCMGVRGRVGVF registered a protein stability index of 0.682 ± 0.088.
In turn, LCPGYVDSRCRG registered a protein stability index of 0.6959 ± 0.0034.
Sequence LCRVFAGFLSVG returned a protein stability index of 0.689 ± 0.036.
Regarding LCSIESGPICIL, the protein stability index is 0.676 ± 0.0097.
LCSSASFFFSVL displayed a protein stability index of 0.67 ± 0.059.
For LCSSSLRPFFPE, the protein stability index came out at 0.754 ± 0.024.
As for LCSTSLTPMRPT, the protein stability index was 0.699 ± 0.021.
For LCTALLRSLTVG, the protein stability index was found to be 0.744 ± 0.13.
LCWGGRCGSGPG displayed a protein stability index of 0.72 ± 0.051.
To LDLELNRRCRTS belongs 0.675 ± 0.06.
The sequence LDLYRYLQDLGC had a protein stability index of 0.731 ± 0.018.
LDSWKQDLYTVC gave a protein stability index of 0.674 ± 0.033.
The same measure for LDTVVNGAIPIL: 0.699 ± 0.051; for LDVQPVHPVDPE: 0.778 ± 0.013; for LEAINRKGIWQE: 0.639 ± 0.083.
LEFFPSSRFFGF showed a protein stability index of 0.773 ± 0.026.
With LEITKKKIGLKY, the protein stability index amounted to 0.716 ± 0.13.
As for LETVPVPPPPSA, the protein stability index is 0.747 ± 0.057.
The sequence LETVWRFECGWG displayed a protein stability index of 0.7759 ± 0.0048.
The sequence LEWVRPCDLFPC had a protein stability index of 0.7198 ± 0.005.
In turn, LFDLVVDSYGHI registered a protein stability index of 0.753 ± 0.034.
As for LFFFPPVPISSV, the protein stability index is 0.601 ± 0.0008.
LFFSIVSPPCGR displayed a protein stability index of 0.748 ± 0.068.
LFGLLSSPLCVD yielded a protein stability index of 0.63 ± 0.042.

Values taken from the supplement of paper PMC10724198.
